As a reminder, the IC50 is the concentration needed to halve the response being measured. Low readings indicate inhibition by little substance, high ones a need for much substance. The EC50 (read off the curve) is the midpoint of the concentration-response curve. The low end stands for a more potent agent, the high end for a less potent agent. Broadly, the Kd is the concentration at which binding is half-saturated.

Assay [1] addresses JCV infectious virus, isolates Mad-1 and Mad-4 (VP1) (JC virus). As to the kind of experiment: cell-based or functional assay.
The target of assay [2] is T1, JCV VLP (consensus) (JC virus, UniProt P03089 1-354).
T1 construct: also called JCV VLPs; JC virus VLPs
Kind of assay: ELISA on coated JCV VLPs. On the technique in general: An ELISA detects its analyte on a solid surface through an enzyme-linked reagent.

The target of assay [3] is T1, JCV VLP (consensus). As to the kind of experiment: ELISA on plates coated with JCV VLPs, OD 450 nm.
Assay [4] deals with T2, BKV serotype I infectious virus (VP1) (BK virus serotype I, UniProt P03088 1-362).
T2 sequence (looked up): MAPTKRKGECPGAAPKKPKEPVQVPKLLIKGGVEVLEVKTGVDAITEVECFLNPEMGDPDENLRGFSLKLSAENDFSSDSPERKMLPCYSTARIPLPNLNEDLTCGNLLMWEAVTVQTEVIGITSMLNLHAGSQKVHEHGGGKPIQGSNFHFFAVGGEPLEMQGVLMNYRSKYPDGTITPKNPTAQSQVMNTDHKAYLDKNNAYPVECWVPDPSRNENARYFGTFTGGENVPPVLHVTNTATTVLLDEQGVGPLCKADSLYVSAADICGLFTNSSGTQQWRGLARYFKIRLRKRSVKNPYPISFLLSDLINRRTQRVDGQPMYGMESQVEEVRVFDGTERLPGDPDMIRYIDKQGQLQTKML
Kind of assay: cell-based or functional assay.

Assay [5] addresses BKV serotype II chimeric infectious virus (VP1 of isolate SB) (BK virus serotype II). Kind of assay: cell-based or functional assay.
Assay [6] addresses BKV serotype III chimeric infectious virus (VP1 of isolate AS) (BK virus serotype III). As to the kind of experiment: cell-based or functional assay.
Assay [7] has as its target BKV serotype IV chimeric infectious virus (VP1 of strain ITA-4) (BK virus serotype IV). As to the kind of experiment: cell-based or functional assay.
The target in assay [8] is T3, BKV serotype I VP1 pentamer (BK virus serotype I, UniProt P03088 30-297).
T3 construct: also called serotype I pentamers; BKV-VP1 serotype I pentameric protein
As to the kind of experiment: SET (solution equilibrium titration) on VP1 pentamers.

The target in assay [9] is T4, BKV serotype II VP1 pentamer (BK virus serotype II, UniProt P14996 30-297).
T4 construct: also called serotype II pentamers
Described as above.

Assay [10] addresses T5, BKV serotype III VP1 pentamer (BK virus serotype III, UniProt P14996 30-297).
T5 construct: also called serotype III pentamers
The assay is described as above.

In assay [11] the target is T6, BKV serotype IV VP1 pentamer (BK virus serotype IV, UniProt P14996 30-297).
T6 construct: also called serotype IV pentamers
The description is as above.

B1: 2077-4-1 (antibody, V domains shown)
VH: EVQLQQSGPELVKPGASMKISCKASGYSFTGYTMNWVKQSHGENLEWIGLFNPYNGGTRYNQKFKGKATLTVDKSSSTAYMELLSLTSEDSAVYYCARLRNYGIGDDFFDYWGQGTTLTVSS
VL: DIVMTQSHKFMSTSVGDRVSITCKASQDVGTAVAWYQQKPGQSPKLLIYWASTRHTGVPDRFTGSGSGTDFTLTISNVQSEDLTDYFCQQYSNYPYTFGGGTKLEIK
For B1, in assay [1], the “neutralization EC50” value was 0.138 µg/mL and the “neutralization EC90” value turned out to be 3.06 µg/mL. The same molecule had an IC50 in [2] of 34 pM. Also, the “EC50 (read off the curve)” value in [3] was approximately 30 pM.

B2: 2077-26-1 (antibody, V domains shown)
VH: EVQLQQSGPDLVKPGASMKLSCKASGYSFTGYTMNWVKQSHGKNLEWIGLFNPYNGGPSYNQKFKGKATLTVDKSSSTAYMELLSLTPEDSAVYYCARLRYYGIGDDFFDYWGQGTTLTVSS
VL: DIVMTQSHKFMSTSVGDRVSITCKASQDVGTAVAWYQEKPGQSPKLLIYWASTRHTGVPDRFTGSGSGTDFTLTISNVQSEDLAYYFCQQYSNYPYTFGGGTKLEIK
Consider B2, for which, in [1], the “neutralization EC50” value is 0.702 µg/mL and the “neutralization EC90” value is 3.2 µg/mL. The molecule also had an IC50 in assay [2] of 67 pM. In assay [3], the “EC50 (read off the curve)” value is approximately 60 pM.

B3: 2077-28-2 (antibody, V domains shown)
VH: EVQLQQSGPELVKPGASMKISCKASGYSFTGYTMNWVKQSHGKNLEWIGLFNPYNGGATYNQRFKGKATLTVDKSSSTAYMDLLSLTSEDSAVYYCTRLRKYGIGDDFFDYWGQGTTLTVSS
VL: DIVMTQSHKFMSTSVGDRVSITCKASQDVGTAVAWYQQKPGQSPKLLIYWASTRHTGVPDRFTGSGSGTDFTLTISNVQSEDLADYFCQQYSTYTYTFGGGTKLEIK
Turning to B3, in assay [1], the “neutralization EC50” value was 0.347 µg/mL and the “neutralization EC90” value is 6.82 µg/mL. Moreover, it took 88 pM to reach half-maximal inhibition in assay [2] (IC50). In addition, the half-maximal effective concentration (EC50 (read off the curve)) in [3] is approximately 90 pM.

B4: 2077-10-1 (antibody, V domains shown)
VH: EVQLQQSGPELVKPGASMKISCKASGYSFTGYTMNWMKQGHGKNLEWIGLFNPYNGGPNYNQKFKGKATLTVDKSSSTAYMELLSLTSEDSAVYYCARLRYYGIGDDFFDYWGQGTTLTVSS
VL: DIVMTQSHKFMSTSVGDRVSITCKASQDVGTAVAWYQQKPGQSPKLLIYWASTRHTGVPDRFTGSGSGTDFTLTITNVQSEDLTDYFCQQYSSYPYTFGGGTKLEIK
B4: in assay [1], the “neutralization EC50” value worked out at 1.49 µg/mL and the “neutralization EC90” value was more than 10 µg/mL. Moreover, in assay [2], the IC50 stood at 100 pM. The “EC50 (read off the curve)” value in assay [3] is approximately 90 pM.

B5: 2077-7-5 (antibody, V domains shown)
VH: EVQLQQSGPELVKPGASMKISCKASGYSFTGYTMNWVKQSHGKNLEWIGLFNPYNGGINYNQKFKGKATLTVDKSSSTAYMELLSLTSEDSAVYYCARLRYYGIGDDFFDYWGQGTSLTVSS
VL: DIVMTQSHKFMSTSVGDRVSITCKASRDVGTAVAWYQQKPGQSPKLLIYWASTRHTGVPDRFTGSGSGTDFTLTISNVQSEDLADYFCQQYSNYPYTFGGGTKLEMK
Regarding B5, in assay [1], the “neutralization EC50” value worked out at 0.097 µg/mL and the “neutralization EC90” value is 1.1 µg/mL. In assay [2], this molecule yielded an IC50 of 651 pM. Besides, the “EC50 (read off the curve)” value in [3] was approximately 600 pM.

B6: P8D11A (antibody, V domains shown)
VH: QVQLVESGGTLVQPGGSLRLSCAASGFTFSNYWMTWVRQAPGKGLEWVANIKKDGSEKYYVDSVRGRFTISRDNAKNSLFLQMNSLRPEDTAVYFCATVRSGRYFALDDWGQGTLVTVSS
VL: QSVLTQPPSVSVAPGKTARITCGGDNIGSRPVHWYQQKPGQAPILVVYDDSNRPSGIPERFSGSNSGNTATLTISRVEAGDEADYYCQVWSSSTDHPFGGGTKVTVLG
On to B6, for which the “neutralization EC50” value in [4] amounted to 0.005 µg/mL; in assay [5], 0.029 µg/mL; in assay [6], 0.01 µg/mL; in assay [7] it was 0.015 µg/mL. Also, the “neutralization EC90” value turned out to be 0.19 µg/mL in assay [4], 8.68 µg/mL in [5], 0.59 µg/mL in [6] and 0.064 µg/mL in assay [7]. The Kd in assay [8] amounted to 4.4 pM; in [9] it was 2.5 pM; in assay [10], 3.7 pM; in assay [11] it was 2.9 pM.

B7: P8D11C (antibody, V domains shown)
VH: QVQLVESGGTLVQPGGSLRLSCAASGFTFQNYWMTWVRQAPGKGLEWVANIKKDGSEKYYVDSVRGRFTISRDNAKNSLFLQMNSLRPEDTAVYFCATVRSGRYFALDDWGQGTLVTVSS
VL: QSVLTQPPSVSVAPGKTARITCGGDNIGSRPVHWYQQKPGQAPILVVYDDSNRPSGIPERFSGSNSGNTATLTISRVEAGDEADYYCQVWSSSTDHPFGGGTKVTVLG
B7: the “neutralization EC50” value in assay [4] came to 0.0003 µg/mL; in assay [5], 0.18 µg/mL; in assay [6], 0.049 µg/mL; in [7], 0.005 µg/mL. In addition, the “neutralization EC90” value in assay [4] came out at 0.34 µg/mL; in assay [5] it was 0.5 µg/mL; in [6] it was 0.51 µg/mL; in assay [7], 0.54 µg/mL. In addition, the Kd came to 4.5 pM in [8], 2.7 pM in assay [9], 4.8 pM in assay [10] and 2.7 pM in [11].

B8: P8D11B (antibody, V domains shown)
VH: QVQLVESGGTLVQPGGSLRLSCAASGFTFKNYWMTWVRQAPGKGLEWVANIKKDGSEKYYVDSVRGRFTISRDNAKNSLFLQMNSLRPEDTAVYFCATVRSGRYFALDDWGQGTLVTVSS
VL: QSVLTQPPSVSVAPGKTARITCGGDNIGSRPVHWYQQKPGQAPILVVYDDSNRPSGIPERFSGSNSGNTATLTISRVEAGDEADYYCQVWSSSTDHPFGGGTKVTVLG
As for B8, the “neutralization EC50” value in [4] was determined as 0.003 µg/mL; in assay [5], 0.088 µg/mL; in assay [6] it was 0.014 µg/mL; in assay [7] it was 0.005 µg/mL. The “neutralization EC90” value in assay [4] turned out to be 0.3 µg/mL; in [5], 1.93 µg/mL; in assay [6], 0.5 µg/mL; in assay [7] it was 0.54 µg/mL. Also, the Kd in assay [8] was 3.8 pM; in assay [9] it was 1.8 pM; in [10], 2.5 pM; in [11], 2.9 pM.

B9: P8D11D (antibody)
heavy: not shown
light: QSVLTQPPSVSVAPGKTARITCGGDNIGSRPVHWYQQKPGQAPILVVYDDSNRPSGIPERFSGSNSGNTATLTISRVEAGDEADYYCQVWSSSTDHPFGGGTKVTVLGQPKAAPSVTLFPPSSEELQANKATLVCLISDFYPGAVTVAWKADSSPVKAGVETTTPSKQSNNKYAASSYLSLTPEQWKSHRSYSCQVTHEGSTVEKTVAPTECS
For the molecule B9, the “neutralization EC50” value in [4] amounted to 0.034 µg/mL; in assay [5], 0.161 µg/mL; in [6], 0.185 µg/mL; in [7], 0.003 µg/mL. In addition, the “neutralization EC90” value in assay [4] amounted to 0.15 µg/mL; in assay [5], 1.64 µg/mL; in assay [6] it was 0.87 µg/mL; in [7] it was 0.063 µg/mL. Besides, the Kd in [8] was 5 pM; in assay [9], 2 pM; in assay [10], 5 pM; in assay [11], 3.2 pM.

B10: P8D11E (antibody)
heavy: not shown
light: QSVLTQPPSVSVAPGKTARITCGGDNIGSRPVHWYQQKPGQAPILVVYDDSNRPSGIPERFSGSNSGNTATLTISRVEAGDEADYYCQVWSSSTDHPFGGGTKVTVLGQPKAAPSVTLFPPSSEELQANKATLVCLISDFYPGAVTVAWKADSSPVKAGVETTTPSKQSNNKYAASSYLSLTPEQWKSHRSYSCQVTHEGSTVEKTVAPTECS
For the molecule B10, the “neutralization EC50” value is 0.032 µg/mL in assay [4], 0.144 µg/mL in [5], 0.236 µg/mL in [6] and 0.002 µg/mL in assay [7]. Moreover, the “neutralization EC90” value was found to be 0.11 µg/mL in assay [4], 2.52 µg/mL in assay [5], 0.9 µg/mL in assay [6] and 0.087 µg/mL in [7]. The Kd in assay [8] was determined as 4.3 pM; in [9] it was 1.7 pM; in [10], 6 pM; in assay [11], 2.7 pM.

(Values after patent US20170088605A1 (Novartis, published 2017).)
